From US20130065819A1 come the findings set out here.

In the test the target is HIV Tat transcription factor (HIV). The experiment in a line: cell-based or functional assay.

Regarding “human TOE1 (Target of Egr1) (from UniProt Q96GM8 1-510)”, the decrease in Tat driven transactivation of the HIV LTR/TAR luciferase reporter in HeLa cells lay in the range of 50 to 80%.
